B1: TPR 5TU (parent)
chain: GGAUCUUCUCGAUCUAACAAAAAAGACAAAUCUGCCACAAAGCUUGAGAGCAUCUUCGGAUGCAGAGGCGGCAGCCUUCGGUGGCGCGAUAGCGCCAACGUUCUCAACUAUGACACGCAAAACGCGUGCUCCGUUGAAUGGAGUUUAUCAUG

Fewer inactive variants are shown than the library holds.

Variants of B1 are the subject of this series. The experiment in a line: polymerase ribozyme fitness, log enrichment relative to wild type (log ratio); higher = more active; in vitro selection for triplet polymerase activity. In a few lines: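 Mutant libraries were PCR-built and transcribed for each subunit of a heterodimeric triplet polymerase ribozyme and selected for one round in triplicate at −7 °C, frozen, before gel excision of extended constructs and streptavidin-bead capture. Input and output libraries were Illumina-sequenced, keeping genotypes with ≥10 input reads and ≥1 read per output. Fitness is a logarithmic ratio of genotype to wild-type enrichment, in base 2, using inverse-variance-weighted replicate averages.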
For the variant GGAUCUUCUCGAUCUAACAGAAAAGACAAAUCUGCCACAAAGCUUGAGAGCAUCUUCGGAUGCAGAGGCGGCAGCCUUCGGUUGCGCGAUAGCGCCAACGUUCUCAACUAUGACACGCAAAACGCGUGCUCCGUUGAAUGGAGUUUAUCAUG [A20G G83U], the “polymerase ribozyme fitness (log ratio)” value is -0.993. Then GGAUCUUCUCGAUCUAACAUAUAAGACAAAUCUGCCACAAAGCUUGAGAGCAUCUUCGGAUGCAGACGCGGCAGCCUUUGGUGGCGCGAUAGCGCCAAGGUUCUCAACUAUGACACGUAAAACGCGUGCUCCGUUGAAUGGAGUUUAUCAUG [A20U A22U G67C C79U C99G C118U], with no more than -4.2. Under GGAUCUUCUCGAUCUAACAGAAAAGACAAAUCUGCCACAAAGCUUGAGAGCAUCUUCGGAUGCAGAGGCGGCAGCCUUCGGUGGCGCGAUAGCACCAACGUUCUGAACUAUGACACGCAAAACGCGUGCUCCGUUGAAUGGAGUUUAUCAUG [A20G G94A C105G] stands -2.04; under GGAUCUUCUCGAUCUAACAGAAAAGACAAAUCUGCCACAAAGCUUGAGAGCAUCUUCGGAUGCAGAGGCGGCAGCCUUCGGUGGCGCGAUAGCGCCAACGUUCUCAACUAUGACACGCAAAACGCGUGCUCCGUUGAAUGGAGUUUACCAUG [A20G U148C], -1.93; under GGAUCUUCUCGAUCUAACAUAGAAGACAAAUCUGCCACAAAGCUUGAGAGCUUCUUCGGAUGCAGAGGCGGCGGCCUUCGGUGGUGCGAUAGCGCCAACGUUCUCAACUAUGACACGCAAAACCCGUGCUCCGUUGAAUGGAGUUUAUCAUG [A20U A22G A52U A73G C85U G124C], -3.91. GGAUCUUCUCGAUCUAACAGAAAAGACAAAUCUGCCACAAAGCUUGAGAGCAUCUUCGGAUGCAGAGGCGGCAGCCUUCGGUGGCUCGAUCGCGCCAACGUUCUCAACUAUGACACGCAAAACGCGUGCUCCGUUGAAUGGAGUUGAUCAUG [A20G G86U A91C U146G]: the “polymerase ribozyme fitness (log ratio)” value is no more than -4.2. Under GGAUCUUCUCGAUCUAACAUAAAAGACAAAUCUGCCACAAAGCUUGAGAGCAUCUUCGGAUGCAGAGGCGGCAGCCUUCGGUGGCGCGAUAGCGCCAACGUUCUCAACUAUGACACGCAAAACGCGUGCUCCGUUGAAUGGAGUUUAUCAUG [A20U] stands -1.18; under GGAUCUUCUCGAUCUAACAGAAAAGACAAAUCUGCCACAAAGCUUGAGAGCAUCUUCGGAUGCAGAGGCGGCAGCCUUCGGUUGCGCGGUAGCGCCAAUGUUCUCAACUAUGACACGCAAAACGCGUGCUCCGUUGAAUGAAGUUAAUCAUG [A20G G83U A89G C99U G141A U146A], no more than -4.2. Under GGAUCUUCUCGAUCUAACAUAAUAGACAAAUCUGCCUCAAAGCUUGAGAGUAUCUUCGGAUGCAGAGGAGGCAGCCUUCGGUGGCGCGAUAGCGCCAACGUUCUUAACUAUGACACGCAAAACGCGUGCUCCGUUGAAUGGAGUUUAUCAUG [A20U A23U A37U C51U C69A C105U] stands no more than -4.2; under GGAUCUUCUCGAUCUAACAGAAAAGACAAAUCUGCCACAAAGCUUGAGAGCAUCAUCGUAUGCAGAGGCGGCAGCUUUCGGUGGCGCGAUAGCGCAAACGUUCUCAACUAUGACACGCAAAACGCGUGCUCCGUUGAAUGGAGUUUAUCAUG [A20G U55A G59U C76U C96A], -1.18. Then GGAUCUUCUCGAUCUAACAUUAAAGACAAAUCUGCCACAACGCUUGUGAGCAUCUUCUGAUGCAGAGGCGGCAGCCUUCGGUGGCGCGAUAGCGCCAACGUUCACAACUAUGACACGCAAAACGCGUGCUCCGUUGAAUGGAGUUUAUCAUG [A20U A21U A41C A47U G58U U104A], with -2.77; and GGAUCUUCUCGAUCUAACAUACAAGACAAAUCUGCCACAAAGCUUGAGAGCAUCUUCGGAUGCAGAGGCGGCAGCCUUCGGUGGCGACAUAGCGCCAUCGUUCUCAGCUAUGACACGCAAAACGCGUGCUCCGUUGAAUGGAGUUUAUCAUG [A20U A22C C87A G88C A98U A107G], with no more than -4.2. Turning to GGAUCUUCUCGAUCUAACAGAAAAGACAAAUCUGCCACAAAGCUUGAGAGCAUCUUCGGAUGCAGAGGCGGCAGCCUUCGGUGGCGCGAUAGCGCCAACGUUCUCAACUAUGACACGCAAAACGCGUGCUCCGUUGAAUUGAGUUUAUCAUG [A20G G140U], the “polymerase ribozyme fitness (log ratio)” value was -3.41. Take GGAUCUUCUCGAUCUAACAGAAAAGACAAAUCUGCCACAAAGCUUGAGAGCAGCUUCGGAUGCAGAGGCGGCAACCUUCGGUGGCGCGAUAGAGCCAACGUUCUCAACUAUGACACGCAAAACGCGUGCUCCGUUGAAUGGAGUUUAUCAUG [A20G U53G G74A C93A]: the “polymerase ribozyme fitness (log ratio)” value is no more than -4.2. Then GGAUCUUCUCGAUCUAACAGAAAAGACAAAUCUGCCACAAAGCUUGAGAGCAUCUUCGGAUGCAGAGGCGGCAGCCUUCGGAGGCGCGAUAGCGCGAACGUUCUCAACUAUGACACGCAAAACGCGUGCUCCGUUGAAUGGAGUUUAUCAUG [A20G U82A C96G], with 0.0125.

GGAUCUUCUCGAUCUAACAGAAAAGACAAAUCUGCCACAAAGCUUGAGAGCAUCUUCGGAUGCAGAGGCGGCAGCCUUCGGUGGCGCGAUAGCGCCAACGUUCUCAACUAUGACACGCAAAACGCAUGCUCCGUUAAAUGGAGUUUAUCAUG [A20G G126A G136A]: the “polymerase ribozyme fitness (log ratio)” value was found to be 0.15. Then GGAUCUUCUCGAUCUAACAGAAAAGACAAAUCUGCCACAAAGCUUGAGAGCAUCUUCGGAUGCAGAGGCGGCAGCCUUCGGUGGCGCGAUAGCGCCAACGUUCUCAACUAUGACACGCAAAACGCGUGCUCCGUUGAAUGGAGAUUAUCAUG [A20G U144A], with -0.576; and GGAUCUUCUCGAUCUAACAUAACAGACAAAUCUGCCACAAAGCUUGAGAGCAUCUUCGGAUGCAGAGGCGGUAGCCUUCGGUGGCGCCAUGGCGCCAAUGUUCUCAACUAUGACACGCAAAACGCGUGCUCCGUUGAAUUGAGUUUAUCAUG [A20U A23C C72U G88C A91G C99U G140U], with no more than -4.2; and GGAUCUUCUCGAUCUAACAGAAAAGACAAAUCUGCCACAAAGCUUGAGAGCAUCUUCGGAUGCAGAGGCGGCAGCCUGCGGUGGCGCGAUAGUGCCAACGUUCUCAACUUUGACACGCAAAACGCGUGCUCCGUGGGAUGGAGUUUAUCAUG [A20G U78G C93U A110U U135G A137G], with no more than -4.2.

The values are drawn from the RNAGym collection of RNA variant scans (doi:10.1073/pnas.2313332121).
